Values belong to the binder of their own block, whether it stands above or below them.
What was measured:
[1] = molecular target: T1, ^35S-labeled in vitro-translated DBC1 (human, UniProt Q8N163 1-923, labelled by incorporation of ^35S-Methionine); assay: GST pull-down, autoradiography
T1 construct: also called ^35S-DBC1; pCIN4-DBC1 product
Description: (§1) Next, whether SIRT1 binds DBC1 in vitro was tested. […] The N-terminus of DBC1 as the SIRT1 binding domain was identified (FIG. 7). Since the enzymatic core sequence represents the most conserved region of mammalian SIRT protein family, whether DBC1 interacts with other members of this family was determined. Flag-tagged derivatives of the seven human SIRT polypeptides (SIRT1-7) were each expressed in 293 cells and extracts of the transfected cells were immunoprecipitated with the α-Flag antibody. […] Although similar expression levels for all seven Flag-SIRT polypeptides were detected, none of the other SIRT proteins (SIRT2, SIRT3, SIRT4, SIRT5, SIRT6 and SIRT7) were able to co-immunoprecipitate DBC1 (lanes 3-8, FIG. 2d).

[2] = molecular target: T2, DBC1 (Deleted in Breast Cancer 1) protein (human, UniProt Q8N163 1-923); assay: anti-Flag immunoprecipitation from transfected 293 cells, Western blot for endogenous DBC1
T2 construct: Endogenous protein of HeLa, U2OS and 293 cells (about 140 kDa band), or expressed from a vector without a stated tag in H1299 cells; also called endogenous DBC1
Description: as §1

[3] = molecular target: T2, DBC1 (Deleted in Breast Cancer 1) …; assay: M2 immunoprecipitation of Flag-tagged SIRT family members from 293 cells, Western blot (FIG. 2d)
Description: as §1

[4] = molecular target: T3, SIRT1 (Silencing mating type information regulator 2 homolog) (human, UniProt Q96EB6 2-747); assay: affinity-purified SIRT1 complexes from HeLa extracts, Western blot
T3 construct: Endogenous protein of HeLa and U2OS cells, or expressed from a vector without a stated tag in H1299 cells; also called endogenous SIRT1; Sir2
T3 sequence (looked up): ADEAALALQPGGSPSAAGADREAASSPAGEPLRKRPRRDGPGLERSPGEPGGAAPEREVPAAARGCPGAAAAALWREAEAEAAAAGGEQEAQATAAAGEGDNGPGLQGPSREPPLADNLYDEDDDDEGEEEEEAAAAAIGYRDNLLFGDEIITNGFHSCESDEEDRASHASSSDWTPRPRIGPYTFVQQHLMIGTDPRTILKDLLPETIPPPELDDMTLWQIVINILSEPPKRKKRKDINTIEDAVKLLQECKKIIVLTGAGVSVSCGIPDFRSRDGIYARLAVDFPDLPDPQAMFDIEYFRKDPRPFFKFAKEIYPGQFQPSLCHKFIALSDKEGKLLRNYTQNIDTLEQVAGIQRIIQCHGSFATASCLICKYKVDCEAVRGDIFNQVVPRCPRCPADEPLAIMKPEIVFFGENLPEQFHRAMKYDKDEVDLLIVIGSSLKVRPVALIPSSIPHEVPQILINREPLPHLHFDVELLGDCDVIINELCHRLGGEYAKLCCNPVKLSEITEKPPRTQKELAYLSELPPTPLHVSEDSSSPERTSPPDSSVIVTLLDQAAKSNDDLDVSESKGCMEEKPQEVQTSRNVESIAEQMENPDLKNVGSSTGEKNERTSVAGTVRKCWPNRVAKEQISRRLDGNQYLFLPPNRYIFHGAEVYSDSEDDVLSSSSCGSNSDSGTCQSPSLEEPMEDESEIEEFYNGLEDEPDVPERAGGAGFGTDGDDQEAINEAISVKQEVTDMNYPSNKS
Description: Figure 1: FIG. 1. Identification of DBC1 as a major component of the SIRT1 complexes in human cells. (a) Colloidal-blue staining of affinity-purified SIRT1 complexes from HeLa extracts with the α-SIRT1 antibody column (lane 2) and a control elute from the same extract with a control antibody column (lane 3). Specific SIRT1 interacting proteins were analyzed by mass spectrometry. (b) Western Blot of input (lane 1), control IP (lane 2) and α-SIRT1 antibody IP (lane 3) for the known SIRT1 interacting protein 14-3-3σ (lower panel) and SIRT1 (upper panel) to verify specificity of the analyzed SIRT1 complex. (c) Schematic representation of the DBC1 protein.

T2 sequence (Q8N163 whole entry): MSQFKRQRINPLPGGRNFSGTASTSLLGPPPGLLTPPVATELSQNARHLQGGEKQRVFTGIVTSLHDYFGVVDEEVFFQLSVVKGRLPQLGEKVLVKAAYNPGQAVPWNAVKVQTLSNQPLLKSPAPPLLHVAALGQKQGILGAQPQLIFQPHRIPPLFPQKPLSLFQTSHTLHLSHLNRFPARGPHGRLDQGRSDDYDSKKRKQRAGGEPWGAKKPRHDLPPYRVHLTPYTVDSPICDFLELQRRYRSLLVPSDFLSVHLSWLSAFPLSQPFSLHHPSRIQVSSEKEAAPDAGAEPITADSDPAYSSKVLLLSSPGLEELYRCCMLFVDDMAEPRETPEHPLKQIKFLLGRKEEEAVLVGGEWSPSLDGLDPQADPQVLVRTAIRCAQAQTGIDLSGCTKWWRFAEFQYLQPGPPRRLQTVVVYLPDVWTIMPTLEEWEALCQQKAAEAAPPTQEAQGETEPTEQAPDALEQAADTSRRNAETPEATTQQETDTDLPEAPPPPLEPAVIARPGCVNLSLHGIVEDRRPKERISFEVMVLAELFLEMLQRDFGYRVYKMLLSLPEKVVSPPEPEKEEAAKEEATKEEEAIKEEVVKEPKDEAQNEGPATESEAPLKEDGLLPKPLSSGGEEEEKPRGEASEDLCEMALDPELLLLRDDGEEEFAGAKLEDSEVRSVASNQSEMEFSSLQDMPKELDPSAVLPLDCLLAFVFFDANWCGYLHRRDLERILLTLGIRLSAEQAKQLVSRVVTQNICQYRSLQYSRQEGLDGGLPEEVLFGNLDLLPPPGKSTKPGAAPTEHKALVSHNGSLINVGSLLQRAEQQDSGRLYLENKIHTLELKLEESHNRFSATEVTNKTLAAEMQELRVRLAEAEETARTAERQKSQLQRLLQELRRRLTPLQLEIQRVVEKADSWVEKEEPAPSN
T1 sequence (Q8N163 whole entry): as above

binding result [1]: no binding
B1: GST-SIRT1-CT (other, human, UniProt Q96EB6 500-747, looked up)
chain: LCCNPVKLSEITEKPPRTQKELAYLSELPPTPLHVSEDSSSPERTSPPDSSVIVTLLDQAAKSNDDLDVSESKGCMEEKPQEVQTSRNVESIAEQMENPDLKNVGSSTGEKNERTSVAGTVRKCWPNRVAKEQISRRLDGNQYLFLPPNRYIFHGAEVYSDSEDDVLSSSSCGSNSDSGTCQSPSLEEPMEDESEIEEFYNGLEDEPDVPERAGGAGFGTDGDDQEAINEAISVKQEVTDMNYPSNKS
notes: domain: C-terminal; also called C-terminus of SIRT1; C-terminal domain of SIRT1; not shown: glutathione S-transferase (GST) fusion partner

binding result [1]: no binding
B2: GST-SIRT1-NT (other, human, UniProt Q96EB6 1-210, looked up)
chain: MADEAALALQPGGSPSAAGADREAASSPAGEPLRKRPRRDGPGLERSPGEPGGAAPEREVPAAARGCPGAAAAALWREAEAEAAAAGGEQEAQATAAAGEGDNGPGLQGPSREPPLADNLYDEDDDDEGEEEEEAAAAAIGYRDNLLFGDEIITNGFHSCESDEEDRASHASSSDWTPRPRIGPYTFVQQHLMIGTDPRTILKDLLPETI
notes: domain: N-terminal; also called N-terminus of SIRT1; N-terminal domain of SIRT1; not shown: glutathione S-transferase (GST) fusion partner

binding result [2]: no binding
B3: Flag-SIRT7 (enzyme, human, UniProt Q9NRC8 1-400, looked up)
chain: MAAGGLSRSERKAAERVRRLREEQQRERLRQVSRILRKAAAERSAEEGRLLAESADLVTELQGRSRRREGLKRRQEEVCDDPEELRGKVRELASAVRNAKYLVVYTGAGISTAASIPDYRGPNGVWTLLQKGRSVSAADLSEAEPTLTHMSITRLHEQKLVQHVVSQNCDGLHLRSGLPRTAISELHGNMYIEVCTSCVPNREYVRVFDVTERTALHRHQTGRTCHKCGTQLRDTIVHFGERGTLGQPLNWEAATEAASRADTILCLGSSLKVLKKYPRLWCMTKPPSRRPKLYIVNLQWTPKDDWAALKLHGKCDDVMRLLMAELGLEIPAYSRWQDPIFSLATPLRAGEEGSHSRKSLCRSREEAPPGDRGAPLSSAPILGGWFGRGCTKRTKRKKVT
notes: not shown: Flag tag

binding result [3]: binds
B4: Flag-SIRT1 (enzyme, human, UniProt Q96EB6 1-747, looked up)
chain: MADEAALALQPGGSPSAAGADREAASSPAGEPLRKRPRRDGPGLERSPGEPGGAAPEREVPAAARGCPGAAAAALWREAEAEAAAAGGEQEAQATAAAGEGDNGPGLQGPSREPPLADNLYDEDDDDEGEEEEEAAAAAIGYRDNLLFGDEIITNGFHSCESDEEDRASHASSSDWTPRPRIGPYTFVQQHLMIGTDPRTILKDLLPETIPPPELDDMTLWQIVINILSEPPKRKKRKDINTIEDAVKLLQECKKIIVLTGAGVSVSCGIPDFRSRDGIYARLAVDFPDLPDPQAMFDIEYFRKDPRPFFKFAKEIYPGQFQPSLCHKFIALSDKEGKLLRNYTQNIDTLEQVAGIQRIIQCHGSFATASCLICKYKVDCEAVRGDIFNQVVPRCPRCPADEPLAIMKPEIVFFGENLPEQFHRAMKYDKDEVDLLIVIGSSLKVRPVALIPSSIPHEVPQILINREPLPHLHFDVELLGDCDVIINELCHRLGGEYAKLCCNPVKLSEITEKPPRTQKELAYLSELPPTPLHVSEDSSSPERTSPPDSSVIVTLLDQAAKSNDDLDVSESKGCMEEKPQEVQTSRNVESIAEQMENPDLKNVGSSTGEKNERTSVAGTVRKCWPNRVAKEQISRRLDGNQYLFLPPNRYIFHGAEVYSDSEDDVLSSSSCGSNSDSGTCQSPSLEEPMEDESEIEEFYNGLEDEPDVPERAGGAGFGTDGDDQEAINEAISVKQEVTDMNYPSNKS
notes: Expressed in 293 or H1299 cells, immunoprecipitated with M2 anti-Flag beads; also called F-SIRT1; Flag-tagged SIRT1; not shown: Flag tag

binding result [2]: no binding
B5: Flag-SIRT2 (enzyme, human, UniProt Q8IXJ6 1-389, looked up)
chain: MAEPDPSHPLETQAGKVQEAQDSDSDSEGGAAGGEADMDFLRNLFSQTLSLGSQKERLLDELTLEGVARYMQSERCRRVICLVGAGISTSAGIPDFRSPSTGLYDNLEKYHLPYPEAIFEISYFKKHPEPFFALAKELYPGQFKPTICHYFMRLLKDKGLLLRCYTQNIDTLERIAGLEQEDLVEAHGTFYTSHCVSASCRHEYPLSWMKEKIFSEVTPKCEDCQSLVKPDIVFFGESLPARFFSCMQSDFLKVDLLLVMGTSLQVQPFASLISKAPLSTPRLLINKEKAGQSDPFLGMIMGLGGGMDFDSKKAYRDVAWLGECDQGCLALAELLGWKKELEDLVRREHASIDAQSGAGVPNPSTSASPKKSPPPAKDEARTTEREKPQ
notes: also called F-SIRT2; not shown: Flag tag

binding result [4]: binds
B6: 14-3-3σ (other, human, UniProt P31947 1-248, looked up)
chain: MERASLIQKAKLAEQAERYEDMAAFMKGAVEKGEELSCEERNLLSVAYKNVVGGQRAAWRVLSSIEQKSNEEGSEEKGPEVREYREKVETELQGVCDTVLGLLDSHLIKEAGDAESRVFYLKMKGDYYRYLAEVATGDDKKRIIDSARSAYQEAMDISKKEMPPTNPIRLGLALNFSVFHYEIANSPEEAISLAKTTFDEAMADLHTLSEDSYKDSTLIMQLLRDNLTLWTADNAGEEGGEAPQEPQS

Source: patent US8043804 (TRUSTEES OF COLUMBIA UNIVERSITY IN THE CITY OF NEW YORK, dated 2011)
